From US20150056134A1 (MABVAX THERAPEUTICS, published 2015)
Residue numbers refer to the chain shown, from its start.

B1: 7E3 human anti-sLe^a monoclonal antibody (antibody, V domains shown)
VH: QVQLLESGGGVVQPGRSLRLSCAASGFTFSFYGMHWVRQAPGKGLEWVAAISYDGSNKYYADSVKGRFTISRDNSKNTLYLQMNSLRAEDTAVYYCAKRPNQFYCSDGRCYSIDYWGQGTLVTVSS
VL: not shown
notes: Human IgM/kappa, tested as hybridoma supernatant; also called EF41-7E3; EF41-7E3 (M)
B2: 5B1 human anti-sLe^a monoclonal antibody (antibody, V domains shown)
VH: QVQLVESGGGSVQPGRSLRLSCEASGFTFEAYAMHWVRQPPGKGLEWVSSINWNSGRIAYADSVKGRFTISRDNARNSLYLQMNSLRLEDTAFYYCAKDIRRFSTGGAEFEYWGQGTLVTVSS
VL: QSVLTQPPSASGTPGQRVTISCSGSSSNIGSNFVYWYQQLPGTAPKLLIYRNNQRPSGVPDRFSGSRSGTSASLAISGLRSEDEADYYCAAWDDSLGGHYVFGTGTKVTVL
notes: Human IgG1/lambda; The ADCC assay used recombinant r5B1 made in CHO cells from a full-length IgG1 vector; also called EF41-5B1; EF41-5B1(G)
B3: 5H11 human anti-sLe^a monoclonal antibody (antibody, IgG1, V domains shown)
VH: QVQLLESGGGLVQPGRSLRLSCAASGFTFDEYAMHWVRQAPGKGLEWVSSVSWNSGSIGYADSVKGRFTISRDNAKNSLYLQMNSLRAEDTALYYCAKDIRTYSTGGAEFASWGQGTLVTASS
VL: B2 VL with F33Y, L40V, R67K, G97S
notes: Human IgG/lambda (IgG1), tested as hybridoma supernatant; also called EF41-5H11; EF41-5H11(G)
B4: 9H3 human anti-sLe^a monoclonal antibody (antibody, IgG1, V domains shown)
VH: EVQLLESGGGLVQPGRSLRLSCAASGFTFDDYVMHWVRQAPGKGLEWVSSISWNSGSIGYADSVKGRFIISRDNAKNSLYLQMNSLRAEDTALYYCAKDRRIRGDSGFEGDYWGQGTLVTVSS
VL: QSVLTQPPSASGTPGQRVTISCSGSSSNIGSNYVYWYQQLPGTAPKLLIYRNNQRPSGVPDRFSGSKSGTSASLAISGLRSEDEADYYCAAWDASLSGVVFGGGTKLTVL
notes: Human IgG/lambda (IgG1), tested as hybridoma supernatant; also called EF41-9H3; EF41-9H3 (G)

Biological target: T1, Neutral Avidin (UniProt P02701 25-152)
T1 construct: Control coating without captured biotinylated sLe^a; also called NAV; Neutr-Avidin
Test: ELISA, hybridoma supernatant on NeutrAvidin-coated control wells without sLe^a

T1 sequence (P02701 25-152 limits assumed): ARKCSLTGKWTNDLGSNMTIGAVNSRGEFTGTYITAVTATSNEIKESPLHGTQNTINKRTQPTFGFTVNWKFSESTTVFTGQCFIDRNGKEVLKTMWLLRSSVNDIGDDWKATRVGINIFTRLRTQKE

Binder | OD (490 nm)
B1 | 0.05 OD (490 nm)
B2 | 0.05 OD (490 nm)
B3 | 0.05 OD (490 nm)
B4 | 0.05 OD (490 nm)
